Results from patent US20250163140A1 (Kyowa Kirin, published 2025).
Residue numbers refer to the chain shown, from its start.

T1: Recombinant Human FGF-23 (R&D Systems, Cat No. 2604-FG-025/CF) (human, UniProt Q9GZV9 25-251)
T1 sequence (looked up): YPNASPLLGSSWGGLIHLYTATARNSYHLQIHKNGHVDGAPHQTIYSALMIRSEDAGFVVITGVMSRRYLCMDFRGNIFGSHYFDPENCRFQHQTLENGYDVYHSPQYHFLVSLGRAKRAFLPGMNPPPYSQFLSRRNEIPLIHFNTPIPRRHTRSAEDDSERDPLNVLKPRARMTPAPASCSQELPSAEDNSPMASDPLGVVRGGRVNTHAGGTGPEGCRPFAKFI

B1: antibody I100N (antibody, human IgG1, V domains shown)
VH: QVQLVQSGAEVKKPGASVKVSCKASGYTFTNHYMHWVRQAPGQGLEWMGIINPISGSTSNAQKFQGRVTMTRDTSTSTVYMELSSLRSEDTAVYYCARDNVDAFDFWGQGTMVTVSS
VL: AIQLTQSPSSLSASVGDRVTITCRASQGISSALVWYQQKPGKAPKLLIYDASSLESGVPSRFSGSGSGTDFTLTISSLQPEDFATYYCQQFNDYFTFGPGTKVDIK
notes: also called modified antibody I100
B2: antibody I100H (antibody, human IgG1, V domains shown)
VH: B1 VH with N100H
VL: B1 VL
notes: as for B1
B3: antibody I100D (antibody, human IgG1, V domains shown)
VH: B1 VH with N100D
VL: B1 VL
notes: as for B1
B4: antibody I100G (antibody, human IgG1, V domains shown)
VH: B1 VH with N100G
VL: B1 VL
notes: as for B1
B5: antibody I100R (antibody, human IgG1, V domains shown)
VH: B1 VH with N100R
VL: B1 VL
notes: as for B1
B6: antibody D105A (antibody, human IgG1, V domains shown)
VH: B1 VH with N100I, D105A
VL: B1 VL
notes: also called modified antibody D105
B7: antibody I100Y (antibody, human IgG1, V domains shown)
VH: B1 VH with N100Y
VL: B1 VL
notes: as for B1
B8: antibody I100A (antibody, human IgG1, V domains shown)
VH: B1 VH with N100A
VL: B1 VL
notes: as for B1
B9: antibody D105T (antibody, human IgG1, V domains shown)
VH: B1 VH with N100I, D105T
VL: B1 VL
notes: as for B6
B10: antibody A-1 (antibody, V domains shown)
VH: B1 VH with I50L, I54W, S55H, S57T, T58F, N100A
VL: B1 VL
notes: VH J2H2B9_A; not shown: human kappa chain constant region
B11: antibody A-6 (antibody, V domains shown)
VH: B1 VH with N100Y
VL: B1 VL with G28D, I29V, S31T, V34L
notes: VL L1H8; not shown: human kappa chain constant region
B12: antibody A-7 (antibody, V domains shown)
VH: B1 VH with N100A
VL: B1 VL with F91L, N92Y, Y94D, T96D
notes: VL 2L3H7; not shown: human kappa chain constant region
B13: antibody A-5 (antibody, V domains shown)
VH: B1 VH with N100A
VL: B1 VL with G28D, I29V, S31T, V34L
notes: as for B11
B14: antibody A-4 (antibody, V domains shown)
VH: B1 VH with N100Y
VL: B1 VL with F91M, N92Y, Y94D, T96N
notes: VL L3G12; not shown: human kappa chain constant region
B15: antibody A-3 (antibody, V domains shown)
VH: B1 VH with N100A
VL: B1 VL with F91M, N92Y, Y94D, T96N
notes: as for B14
B16: antibody A-8 (antibody, V domains shown)
VH: B1 VH with N100Y
VL: B1 VL with F91L, N92Y, Y94D, T96D
notes: as for B12
B17: antibody A-2 (antibody, V domains shown)
VH: B1 VH with I50L, I54W, S55H, S57T, T58F, N100Y
VL: B1 VL
notes: VH J2H2B9_Y; not shown: human kappa chain constant region
B18: antibody I100L (antibody, human IgG1, V domains shown)
VH: B1 VH with N100L
VL: B1 VL
notes: as for B1
B19: antibody I100V (antibody, human IgG1, V domains shown)
VH: B1 VH with N100V
VL: B1 VL
notes: as for B1
B20: antibody A_G2AAAS_A (antibody)
chain 1: QVQLVQSGAEVKKPGASVKVSCKASGYTFTNHYMHWVRQAPGQGLEWMGIINPISGSTSNAQKFQGRVTMTRDTSTSTVYMELSSLRSEDTAVYYCARDIVDAFDFWGQGTMVTVSSASTKGPSVFPLAPCSRSTSESTAALGCLVKDYFPEPVTVSWNSGALTSGVHTFPAVLQSSGLYSLSSVVTVPSSNFGTQTYTCNVDHKPSNTKVDKTVERKCCVECPPCPAPPAAAPSVFLFPPKPKDTLMISRTPEVTCVVVDVSHEDPEVQFNWYVDGVEVHNAKTKPREEQFNSTFRVVSVLTVVHQDWLNGKEYKCKVSNKGLPASIEKTISKTKGQPREPQVYTLPPSREEMTKNQVSLTCLVKGFYPSDISVEWESNGQPENNYKTTPPMLDSDGSFFLYSKLTVDKSRWQQGNVFSCSVMHEALHAHYTQKSLSLSPGK
chain 2: not shown
B21: antibody A_G2AAAS_QL (antibody)
chain 1: B20 chain 1 with T246Q, M424L, A430N
chain 2: not shown
B22: antibody A_IgG4PE_R409K_QL (antibody)
chain 1: QVQLVQSGAEVKKPGASVKVSCKASGYTFTNHYMHWVRQAPGQGLEWMGIINPISGSTSNAQKFQGRVTMTRDTSTSTVYMELSSLRSEDTAVYYCARDIVDAFDFWGQGTMVTVSSASTKGPSVFPLAPCSRSTSESTAALGCLVKDYFPEPVTVSWNSGALTSGVHTFPAVLQSSGLYSLSSVVTVPSSSLGTKTYTCNVDHKPSNTKVDKRVESKYGPPCPPCPAPEFEGGPSVFLFPPKPKDQLMISRTPEVTCVVVDVSQEDPEVQFNWYVDGVEVHNAKTKPREEQFNSTYRVVSVLTVLHQDWLNGKEYKCKVSNKGLPSSIEKTISKAKGQPREPQVYTLPPSQEEMTKNQVSLTCLVKGFYPSDIAVEWESNGQPENNYKTTPPVLDSDGSFFLYSKLTVDKSRWQEGNVFSCSVLHEALHNHYTQKSLSLSLGK
chain 2: not shown
B23: antibody A_IgG4PE_R409K (antibody)
heavy: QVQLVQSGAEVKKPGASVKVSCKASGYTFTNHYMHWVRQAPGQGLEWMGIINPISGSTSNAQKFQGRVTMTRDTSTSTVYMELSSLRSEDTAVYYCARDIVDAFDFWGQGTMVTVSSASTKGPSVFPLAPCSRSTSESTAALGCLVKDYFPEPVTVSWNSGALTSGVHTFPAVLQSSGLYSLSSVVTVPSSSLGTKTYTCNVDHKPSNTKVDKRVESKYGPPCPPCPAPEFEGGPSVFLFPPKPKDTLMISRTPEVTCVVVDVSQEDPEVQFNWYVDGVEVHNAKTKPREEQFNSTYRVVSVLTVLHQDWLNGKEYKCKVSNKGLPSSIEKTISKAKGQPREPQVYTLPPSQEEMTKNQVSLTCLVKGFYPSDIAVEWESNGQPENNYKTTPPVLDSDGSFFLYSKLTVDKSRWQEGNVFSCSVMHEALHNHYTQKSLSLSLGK
VL: B1 VL
notes: copies: 2 + 2
B24: antibody A_IgG4PE_R409K_P (antibody)
heavy: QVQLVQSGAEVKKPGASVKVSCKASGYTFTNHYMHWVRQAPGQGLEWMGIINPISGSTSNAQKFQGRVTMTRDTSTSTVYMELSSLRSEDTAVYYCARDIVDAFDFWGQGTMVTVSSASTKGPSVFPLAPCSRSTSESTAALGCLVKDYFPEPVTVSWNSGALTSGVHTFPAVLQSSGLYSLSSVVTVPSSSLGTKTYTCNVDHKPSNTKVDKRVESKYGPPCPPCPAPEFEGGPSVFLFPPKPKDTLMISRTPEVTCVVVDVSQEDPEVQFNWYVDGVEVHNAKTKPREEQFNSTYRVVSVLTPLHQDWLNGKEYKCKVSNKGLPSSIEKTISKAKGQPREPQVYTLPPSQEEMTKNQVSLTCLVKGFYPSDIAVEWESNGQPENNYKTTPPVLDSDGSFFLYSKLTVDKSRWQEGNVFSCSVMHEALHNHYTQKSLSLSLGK
light: B1 VL
notes: not shown: human kappa chain constant region; copies: 2 + 2
B25: antibody A_IgG4PE_R409K_YTE (antibody)
heavy: B22 chain 1 with Q247T, M249Y, S251T, T253E, L425M
VL: B1 VL
notes: copies: 2 + 2
B26: antibody A_G2_YTE (antibody)
heavy: B20 chain 1 with A231V, A233G, M248Y, S250T, T252E, S327P, S374A, A430N
light: B1 VL
notes: as for B24
B27: antibody A_LS (antibody, human IgG1, name in EU numbering)
heavy: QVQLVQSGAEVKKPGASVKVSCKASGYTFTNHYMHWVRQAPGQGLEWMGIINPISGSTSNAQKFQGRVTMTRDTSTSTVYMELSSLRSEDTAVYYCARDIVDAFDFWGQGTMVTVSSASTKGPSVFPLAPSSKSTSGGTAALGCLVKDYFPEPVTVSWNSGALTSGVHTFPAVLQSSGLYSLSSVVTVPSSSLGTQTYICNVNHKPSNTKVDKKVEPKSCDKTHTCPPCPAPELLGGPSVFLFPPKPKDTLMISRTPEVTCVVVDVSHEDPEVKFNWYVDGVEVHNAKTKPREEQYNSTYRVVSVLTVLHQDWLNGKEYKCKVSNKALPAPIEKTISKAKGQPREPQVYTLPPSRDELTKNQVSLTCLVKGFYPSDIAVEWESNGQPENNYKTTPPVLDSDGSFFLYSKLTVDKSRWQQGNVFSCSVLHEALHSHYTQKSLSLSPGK
light: B1 VL
notes: positions are EU index; not shown: human kappa chain constant region; copies: 2 + 2

These binders were tested against T1, Recombinant Human FGF-23 (R&D Systems, …) (assay: cell-based or functional assay).

Row | FGF23 neutralizing activity IC50 (luciferase promoter assay) [ng/mL] | Binder
1 | 26.2 | B1
2 | 8.9 | B2
3 | > 100 | B3
4 | > 100 | B4
5 | 82.5 | B5
6 | > 100 | B6
7 | 3 | B7
8 | 5.1 | B8
9 | > 100 | B9

Target: T1, Recombinant Human FGF-23 (R&D Systems, …)
Experiment: cell-based or functional assay
Remark: another data set of the same source

Row | FGF23 neutralizing activity IC50 (luciferase promoter assay) [ng/mL] | Binder
10 | 3.5 | B10
11 | 3.6 | B11
12 | 3.2 | B12
13 | 1.9 | B13
14 | 1.9 | B14
15 | 2.7 | B15
16 | 2.4 | B16
17 | 3.4 | B17

Each binder was assayed against T1, Recombinant Human FGF-23 (R&D Systems, …) (assay: SPR, antibody captured by anti-human IgG, FGF-23 analyte).

Row | Kd [nM] | Binder
18 | 0.0126 | B18
19 | 0.014 | B8
20 | 0.00473 | B19

Target: T1, Recombinant Human FGF-23 (R&D Systems, …)
Experiment: as above
Remark: another data set of the same source

Row | Kd [nM] | Binder
21 | 0.0934 | B1
22 | 0.0672 | B2
23 | 0.219 | B3
24 | 0.149 | B4
25 | 0.222 | B5
26 | 0.0186 | B7
27 | 0.0251 | B8

Target: T1, Recombinant Human FGF-23 (R&D Systems, …)
Experiment: as above
Remark: another data set of the same source

Row | Kd [nM] | Binder
28 | 0.0289 | B8

Target: T1, Recombinant Human FGF-23 (R&D Systems, …)
Experiment: as above
Remark: another data set of the same source

Row | Kd [nM] | Binder
29 | 0.108 | B6
30 | 0.111 | B9

These binders were tested against T1, Recombinant Human FGF-23 (R&D Systems, …) (assay: SPR, antibody captured on Protein A chip, FGF-23 analyte).

Row | Kd [pM] | Binder
31 | 8.22 | B10
32 | 11.3 | B11
33 | 16.1 | B12
34 | 3.61 | B13
35 | 8.74 | B14
36 | 8.27 | B15
37 | 6.7 | B16
38 | 8.08 | B17

What follows are binders tested against T2, human FcRn (human FcRn-His tag with human β2 microglobulin) (human, UniProt P55899 24-297; P61769 21-119) (assay: SPR pH 6, FcRn-His captured by anti-His, antibody analyte).
T2 construct: also called h FcRn; hFcRn

Row | Kd [nM] | Binder
39 | 247 | B20
40 | 213 | B21
41 | 265 | B22
42 | 912 | B23
43 | 192 | B24
44 | 227 | B25
45 | 186 | B26

These binders were tested against T3, monkey FcRn (monkey FcRn-His tag with monkey β2 microglobulin) (cynomolgus monkey, UniProt Q8SPV9 24-297; Q8SPW0 21-119) in the same assay as above.
T3 construct: also called cyno FcRn; cynomolgus monkey FcRn extracellular domain His-tag body
T3 sequence (Q8SPV9 other isoform, or with tags, fused parts or gaps limits assumed, chain 1 of 2): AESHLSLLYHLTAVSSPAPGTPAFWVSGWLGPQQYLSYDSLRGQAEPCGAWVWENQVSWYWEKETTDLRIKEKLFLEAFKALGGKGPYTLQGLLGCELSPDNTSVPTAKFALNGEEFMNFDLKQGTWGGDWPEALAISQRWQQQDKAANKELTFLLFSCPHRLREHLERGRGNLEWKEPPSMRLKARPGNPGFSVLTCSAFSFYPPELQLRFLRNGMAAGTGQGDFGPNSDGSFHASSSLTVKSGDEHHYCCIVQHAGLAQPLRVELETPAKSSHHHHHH
T3 sequence (Q8SPW0 21-119 limits assumed, chain 2 of 2): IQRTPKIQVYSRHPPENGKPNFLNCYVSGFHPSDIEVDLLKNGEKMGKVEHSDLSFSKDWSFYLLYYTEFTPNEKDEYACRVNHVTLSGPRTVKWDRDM

Row | Kd [nM] | Binder
46 | 129 | B20
47 | 69 | B21
48 | 87 | B22
49 | 324 | B23
50 | 76.9 | B24
51 | 123 | B25
52 | 39.1 | B26

Target: T2, human FcRn (human FcRn-His tag with …)
Experiment: as above
Remark: another data set of the same source

Row | Kd [nM] | Binder
53 | 142 | B27
